# Results: article PMC2810746 (Cell host & microbe, 2009)
# B1: adenovirus penton base, recombinant, expressed in COS-7 cells (natural protein)
# chain: MRRAAMYEEGPPPSYESVVSAAPVAAALGSPFDAPLDPPFVPPRYLRPTGGRNSIRYSELAPLFDTTRVYLVDNKSTDVASLNYQNDHSNFLTTVIQNNDYSPGEASTQTINLDDRSHWGGDLKTILHTNMPNVNEFMFTNKFKARVMVSRLPTKDNQVELKYEWVEFTLPEGNYSETMTIDLMNNAIVEHYLKVGRQNGVLESDIGVKFDTRNFRLGFDPVTGLVMPGVYTNEAFHPDIILLPGCGVDFTHSRLSNLLGIRKRQPFQEGFRITYDDLEGGNIPALLDVDAYQASLKDDTEQGGGGAGGSNSSGSGAEENSNAAAAAMQPVEDMNDHAIRGDTFATRAEEKRAEAEAAAEAAAPAAQPEVEKPQKKPVIKPLTEDSKKRSYNLISNDSTFTQYRSWYLAYNYGDPQTGIRSWTLLCTPDVTCGSEQVYWSLPDMMQDPVTFRSTRQISNFPVVGAELLPVHSKSFYNDQAVYSQLIRQFTSLTHVFNRFPENQILARPPAPTITTVSENVPALTDHGTLPLRNSIGGVQRVTITDARRRTCPYVYKALGIVSPRVLSSRTF
# Molecular target: the molecule itself
# Experiment: immunoblotting of unboiled samples
protein,measurement,value
B1,stoichiometry N,5
